This is an account of results in patent publication US20230257458A1 (SUNSHINE LAKE PHARMA, published 2023).

Test [1] addresses T1, IL-11 protein (UniProt P20809 22-199, limits assumed).
T1 construct: also called IL-11 antigen
T1 sequence (looked up): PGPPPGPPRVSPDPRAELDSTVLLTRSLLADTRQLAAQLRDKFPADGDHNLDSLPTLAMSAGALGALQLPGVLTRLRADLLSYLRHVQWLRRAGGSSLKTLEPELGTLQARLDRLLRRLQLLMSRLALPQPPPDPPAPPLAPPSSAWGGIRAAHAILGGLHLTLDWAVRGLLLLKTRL
Nature of the test: SPR (Biacore), antibody captured, 400 nM IL-11 as analyte. The procedure: The measure method included the steps of capturing the humanized antibody at a flow rate of 10 ul/min. […] Finally the chip was regenerated with 10 mM glycine buffer.
On the technique in general: In SPR one partner is held on a chip, and binding of the other changes the refractive index at the surface.

In test [2] the target is T1, IL-11 protein. Briefly: ELISA, monoclonal hybridoma supernatant on IL-11. The text has this:
(§1) Cell lines with high secretion of specific antibody were selected for expanded culture and cryopreservation.

Test [3] addresses T1, IL-11 protein. Nature of the test: flow competition: IL-11 + antibody on IL-11R cells; lower = more blocking.
Source text: as §1

B1: VH2 + VL3-scFv (scFv, V domains shown)
VH: QVQLVQSGAEVKKPGASVKVSCKASDYTFTNYWLGWVRQAPGQGLEWIGHIYPGGGYTNYNEKFKGRVTMTADTSTSTVYMELSSLRSEDTAVYFCARVRSGNDALDFWGQGTLVTVSS
VL: EIVLTQSPATLSLSPGERATLSCRASESVDEYGISFMNWFQQKPGQAPRLLIYSASNQGSGIPARFSGSGSGTDFTLTISSLEPEDFAVYFCQQSKEVPWTFGGGTKLEIK
notes: Humanized 5-20E11-5F2; CHO supernatant; Called scFv, but heavy and light vectors were co-transfected
In the case of B1, in the test with IL-11 protein [1], the Kd (usually the equilibrium constant for the complex coming apart) was found to be 11.9 nM; the koff (commonly a measure of how fast the partners let go of each other) is 0.000541 s⁻¹; the kon (in general, a measure of how fast the partners come together) was 45600 M⁻¹ s⁻¹.

B2: VH2 + VL1-scFv (scFv, V domains shown)
VH: QVQLVQSGAEVKKPGASVKVSCKASDYTFTNYWLGWVRQAPGQGLEWIGHIYPGGGYTNYNEKFKGRVTMTADTSTSTVYMELSSLRSEDTAVYFCARVRSGNDALDFWGQGTLVTVSS
VL: EIVLTQSPATLSLSPGERATLSCRASESVDEYGISFMNWYQQKPGQAPRLLIYSASNQGSGIPARFSGSGSGTDFTLTISSLEPEDFAVYYCQQSKEVPWTFGGGTKLEIK
notes: as for B1
In the test with IL-11 protein [1], B2 registered a Kd of 16.7 nM, a koff of 0.00089 s⁻¹ and a kon of 53400 M⁻¹ s⁻¹.

B3: VH1 + VL2-scFv (scFv, V domains shown)
VH: QVQLVQSGAEVKKPGASVKVSCKASDYTFTNYWLGWVRQAPGQGLEWMGHIYPGGGYTNYNEKFKGRVTMTRDTSTSTVYMELSSLRSEDTAVYYCARVRSGNDALDFWGQGTLVTVSS
VL: EIVLTQSPATLSLSPGERATLSCRASESVDEYGISFMNWYQQKPGQAPRLLIYSASNQGSGIPARFSGSGSGTDFTLTISSLEPEDFAVYFCQQSKEVPWTFGGGTKLEIK
notes: as for B1
For the molecule B3, in the test with IL-11 protein [1], the Kd was 11.2 nM, the koff came out at 0.000461 s⁻¹ and the kon was determined as 41300 M⁻¹ s⁻¹.

B4: VH4 + VL2-scFv (scFv, V domains shown)
VH: QVQLVQSGAEVKKPGASVKVSCKASDYTFTNYWLGWVRQAPGHGLEWIGHIYPGGGYTNYNEKFKGRATLTADTSTSTVYMELSSLRSEDTAVYFCARVRSGNDALDFWGQGTLVTVSS
VL: EIVLTQSPATLSLSPGERATLSCRASESVDEYGISFMNWYQQKPGQAPRLLIYSASNQGSGIPARFSGSGSGTDFTLTISSLEPEDFAVYFCQQSKEVPWTFGGGTKLEIK
notes: as for B1
Turning to B4, in the test with IL-11 protein [1], the affinity, expressed as Kd, was 11.1 nM; the koff came to 0.000614 s⁻¹; the kon stood at 55200 M⁻¹ s⁻¹.

B5: VH3 + VL3-scFv (scFv, V domains shown)
VH: QVQLVQSGAEVKKPGASVKVSCKASDYTFTNYWLGWVRQAPGQGLEWIGHIYPGGGYTNYNEKFKGRATLTADTSTSTVYMELSSLRSEDTAVYFCARVRSGNDALDFWGQGTLVTVSS
VL: EIVLTQSPATLSLSPGERATLSCRASESVDEYGISFMNWFQQKPGQAPRLLIYSASNQGSGIPARFSGSGSGTDFTLTISSLEPEDFAVYFCQQSKEVPWTFGGGTKLEIK
notes: as for B1
In the test with IL-11 protein [1], B5 came in with a Kd of 9.76 nM, a koff of 0.000464 s⁻¹ and a kon of 47600 M⁻¹ s⁻¹.

B6: VH1 + VL4-scFv (scFv, V domains shown)
VH: QVQLVQSGAEVKKPGASVKVSCKASDYTFTNYWLGWVRQAPGQGLEWMGHIYPGGGYTNYNEKFKGRVTMTRDTSTSTVYMELSSLRSEDTAVYYCARVRSGNDALDFWGQGTLVTVSS
VL: EIVLTQSPATLSLSPGERATLSCRASESVDEYGISFMNWFQQKPGQAPRLLIYSASNQGSGIPARFSGSGSGTDFTLTISSLEPEDFAMYFCQQSKEVPWTFGGGTKLEIK
notes: as for B1
In the test with IL-11 protein [1], B6 registered a dissociation constant (Kd) of 11.7 nM, a koff of 0.000387 s⁻¹ and a kon of 33100 M⁻¹ s⁻¹.

B7: VH1 + VL3-scFv (scFv, V domains shown)
VH: QVQLVQSGAEVKKPGASVKVSCKASDYTFTNYWLGWVRQAPGQGLEWMGHIYPGGGYTNYNEKFKGRVTMTRDTSTSTVYMELSSLRSEDTAVYYCARVRSGNDALDFWGQGTLVTVSS
VL: EIVLTQSPATLSLSPGERATLSCRASESVDEYGISFMNWFQQKPGQAPRLLIYSASNQGSGIPARFSGSGSGTDFTLTISSLEPEDFAVYFCQQSKEVPWTFGGGTKLEIK
notes: as for B1
In the test with IL-11 protein [1], B7 showed a Kd of 12.3 nM, a koff of 0.000436 s⁻¹ and a kon of 35500 M⁻¹ s⁻¹.

B8: VH2 + VL4-scFv (scFv, V domains shown)
VH: QVQLVQSGAEVKKPGASVKVSCKASDYTFTNYWLGWVRQAPGQGLEWIGHIYPGGGYTNYNEKFKGRVTMTADTSTSTVYMELSSLRSEDTAVYFCARVRSGNDALDFWGQGTLVTVSS
VL: EIVLTQSPATLSLSPGERATLSCRASESVDEYGISFMNWFQQKPGQAPRLLIYSASNQGSGIPARFSGSGSGTDFTLTISSLEPEDFAMYFCQQSKEVPWTFGGGTKLEIK
notes: as for B1
In the test with IL-11 protein [1], B8 had a Kd of 10.8 nM, a koff of 0.000528 s⁻¹ and a kon of 48800 M⁻¹ s⁻¹.

B9: VH1 + VL1-scFv (scFv, V domains shown)
VH: QVQLVQSGAEVKKPGASVKVSCKASDYTFTNYWLGWVRQAPGQGLEWMGHIYPGGGYTNYNEKFKGRVTMTRDTSTSTVYMELSSLRSEDTAVYYCARVRSGNDALDFWGQGTLVTVSS
VL: EIVLTQSPATLSLSPGERATLSCRASESVDEYGISFMNWYQQKPGQAPRLLIYSASNQGSGIPARFSGSGSGTDFTLTISSLEPEDFAVYYCQQSKEVPWTFGGGTKLEIK
notes: as for B1
For B9, in the test with IL-11 protein [1], the Kd was determined as 21.6 nM, the koff was determined as 0.000758 s⁻¹ and the kon was 35100 M⁻¹ s⁻¹.

B10: VH3 + VL1-scFv (scFv, V domains shown)
VH: QVQLVQSGAEVKKPGASVKVSCKASDYTFTNYWLGWVRQAPGQGLEWIGHIYPGGGYTNYNEKFKGRATLTADTSTSTVYMELSSLRSEDTAVYFCARVRSGNDALDFWGQGTLVTVSS
VL: EIVLTQSPATLSLSPGERATLSCRASESVDEYGISFMNWYQQKPGQAPRLLIYSASNQGSGIPARFSGSGSGTDFTLTISSLEPEDFAVYYCQQSKEVPWTFGGGTKLEIK
notes: as for B1
In the test with IL-11 protein [1], B10 displayed a Kd of 22.5 nM, a koff of 0.001 s⁻¹ and a kon of 44500 M⁻¹ s⁻¹.

B11: VH4 + VL4-scFv (scFv, V domains shown)
VH: QVQLVQSGAEVKKPGASVKVSCKASDYTFTNYWLGWVRQAPGHGLEWIGHIYPGGGYTNYNEKFKGRATLTADTSTSTVYMELSSLRSEDTAVYFCARVRSGNDALDFWGQGTLVTVSS
VL: EIVLTQSPATLSLSPGERATLSCRASESVDEYGISFMNWFQQKPGQAPRLLIYSASNQGSGIPARFSGSGSGTDFTLTISSLEPEDFAMYFCQQSKEVPWTFGGGTKLEIK
notes: as for B1
B11: in the test with IL-11 protein [1], the Kd was determined as 10 nM, the koff worked out at 0.000481 s⁻¹ and the on-rate (kon) is 47900 M⁻¹ s⁻¹.

B12: VH3 + VL2-scFv (scFv, V domains shown)
VH: QVQLVQSGAEVKKPGASVKVSCKASDYTFTNYWLGWVRQAPGQGLEWIGHIYPGGGYTNYNEKFKGRATLTADTSTSTVYMELSSLRSEDTAVYFCARVRSGNDALDFWGQGTLVTVSS
VL: EIVLTQSPATLSLSPGERATLSCRASESVDEYGISFMNWYQQKPGQAPRLLIYSASNQGSGIPARFSGSGSGTDFTLTISSLEPEDFAVYFCQQSKEVPWTFGGGTKLEIK
notes: as for B1
With B12, in the test with IL-11 protein [1], the equilibrium dissociation constant (Kd) amounted to 14.6 nM, the koff is 0.00068 s⁻¹ and the on-rate constant (kon) came to 46500 M⁻¹ s⁻¹.

B13: VH4 + VL1-scFv (scFv, V domains shown)
VH: QVQLVQSGAEVKKPGASVKVSCKASDYTFTNYWLGWVRQAPGHGLEWIGHIYPGGGYTNYNEKFKGRATLTADTSTSTVYMELSSLRSEDTAVYFCARVRSGNDALDFWGQGTLVTVSS
VL: EIVLTQSPATLSLSPGERATLSCRASESVDEYGISFMNWYQQKPGQAPRLLIYSASNQGSGIPARFSGSGSGTDFTLTISSLEPEDFAVYYCQQSKEVPWTFGGGTKLEIK
notes: as for B1
In the test with IL-11 protein [1], B13 came in with a Kd of 17.2 nM, an off-rate constant (koff) of 0.00084 s⁻¹ and a kon of 48900 M⁻¹ s⁻¹.

B14: VH2 + VL2-scFv (scFv, V domains shown)
VH: QVQLVQSGAEVKKPGASVKVSCKASDYTFTNYWLGWVRQAPGQGLEWIGHIYPGGGYTNYNEKFKGRVTMTADTSTSTVYMELSSLRSEDTAVYFCARVRSGNDALDFWGQGTLVTVSS
VL: EIVLTQSPATLSLSPGERATLSCRASESVDEYGISFMNWYQQKPGQAPRLLIYSASNQGSGIPARFSGSGSGTDFTLTISSLEPEDFAVYFCQQSKEVPWTFGGGTKLEIK
notes: as for B1
In the test with IL-11 protein [1], B14 gave a Kd of 17.8 nM, a koff of 0.000812 s⁻¹ and an on-rate constant (kon) of 45700 M⁻¹ s⁻¹.

B15: VH3 + VL4-scFv (scFv, V domains shown)
VH: QVQLVQSGAEVKKPGASVKVSCKASDYTFTNYWLGWVRQAPGQGLEWIGHIYPGGGYTNYNEKFKGRATLTADTSTSTVYMELSSLRSEDTAVYFCARVRSGNDALDFWGQGTLVTVSS
VL: EIVLTQSPATLSLSPGERATLSCRASESVDEYGISFMNWFQQKPGQAPRLLIYSASNQGSGIPARFSGSGSGTDFTLTISSLEPEDFAMYFCQQSKEVPWTFGGGTKLEIK
notes: as for B1
In the test with IL-11 protein [1], B15 returned a Kd of 13.3 nM, a koff of 0.000556 s⁻¹ and a kon of 41800 M⁻¹ s⁻¹.

B16: VH4 + VL3-scFv (scFv, V domains shown)
VH: QVQLVQSGAEVKKPGASVKVSCKASDYTFTNYWLGWVRQAPGHGLEWIGHIYPGGGYTNYNEKFKGRATLTADTSTSTVYMELSSLRSEDTAVYFCARVRSGNDALDFWGQGTLVTVSS
VL: EIVLTQSPATLSLSPGERATLSCRASESVDEYGISFMNWFQQKPGQAPRLLIYSASNQGSGIPARFSGSGSGTDFTLTISSLEPEDFAVYFCQQSKEVPWTFGGGTKLEIK
notes: as for B1
In the test with IL-11 protein [1], B16 yielded a Kd of 11.2 nM, a koff of 0.000516 s⁻¹ and a kon of 46100 M⁻¹ s⁻¹.

B17: 3-5B2-2G4 (antibody, human IgG1, kappa, V domains shown)
VH: QIQLVQSGPELKKPGETVKISCKASGYTFTNYGMNWVKQAPGKGLKWMGWINTNTGEPTYAEEIKGRFAFSLETSASTAYLQINNLKNEDTATYFCSREGIYGMDSWGQGTSVTVSS
VL: SIVMTQTPKFLLVSAGDRVTITCKASQSVSNDVVWYRQKPGQSPKLLIYYASNRYIGVPDRFTGSGYGTDFTFTISTVQAEDLAVYFCQQDYYSPWTFGGGTKLEIKR
B17: in the test with IL-11 protein [2], the OD450 is 1.65. Further, in the test with IL-11 protein [3], the “FITC Mean” value turned out to be 19800.
